pIC50, pKd: −log10 of the molar value.
How the values were obtained:
[1] = molecular target: SARS-CoV-2 spike protein on Ramos-S cells (SARS-CoV-2) (UniProt P0DTC2); assay: flow cytometry on cells
[2] = molecular target: hexahistidine tagged RBD WT (SARS CoV-2, isolate Wuhan-Hu-1, aa residues 319-541) (SARS-CoV-2) (UniProt P0DTC2); assay: peptide or protein array
[3] = molecular target: EflACE2-Fc-WT (human) (UniProt Q9BYF1); assay: BLI

| Substance | median fluorescence intensity [1] | pIC50 [2] | pKd [3] |
| --- | --- | --- | --- |
| trACE2-Fc-kif (from UniProt Q9BYF1 19-615) (Fc fusion) | 16400 | – | – |
| flACE2-Fc-WT (from UniProt Q9BYF1 19-740) (Fc fusion) | 17200 | 7.10 | – |
| EflACE2-Fc-WT (from UniProt Q9BYF1 19-740) (Fc fusion) | 19600 | 8.00 | – |
| trACE2-Fc WT (from UniProt Q9BYF1 19-615) (Fc fusion) | 15500 | 6.94 | – |
| SARS-CoV-2 spike RBD (analyte of the BLI) (from UniProt P0DTC2) (domain or fragment) | – | – | 9.15 |

Source: article PMC9369017
